Test results taken from paper PMC7247563, “Glycosylation Tunes Neuroserpin Physiological and Pathological Properties” (International Journal of Molecular Sciences, 2020).

Target: the molecule itself
Assay: SEC; 63.8 uM NS or gNS in 10 mM Tris-HCl pH 8.0, 50 mM KCl, incubated at 45 °C; aliquots at different times run on a Superdex 200 Increase 10/300 GL column; heat-induced polymerisation

B1: bacterially expressed human neuroserpin (non-glycosylated) (natural protein, UniProt Q99574 17-410, looked up)
chain: TGATFPEEAIADLSVNMYNRLRATGEDENILFSPLSIALAMGMMELGAQGSTQKEIRHSMGYDSLKNGEEFSFLKEFSNMVTAKESQYVMKIANSLFVQNGFHVNEEFLQMMKKYFNAAVNHVDFSQNVAVANYINKWVENNTNNLVKDLVSPRDFDAATYLALINAVYFKGNWKSQFRPENTRTFSFTKDDESEVQIPMMYQQGEFYYGEFSDGSNEAGGIYQVLEIPYEGDEISMMLVLSRQEVPLATLEPLVKAQLVEEWANSVKKQKVEVYLPRFTVEQEIDLKDVLKALGITEIFIKDANLTGLSDNKEIFLSKAIHKSFLEVNEEGSEAAAVSGMIAISRMAVLYPQVIVDHPFFFLIRNRRTGTILFMGRVMHPETMNTSGHDFEEL
notes: human neuroserpin (NS), wild type, from the pQE81L plasmid carrying the human NS gene; theoretical mass of the construct 46,271 Da; Samples were a mix of native NS and NS cleaved at Arg362; also called NS; bacterially purified NS; source: E. coli BL21 Rosetta (DE3) pLysS, purified (HiTrap Chelating HP, Superdex200 gel filtration)
- binding result: binds
